Values quoted from earlier work as cited in publication PMC7277390.

Target: serum albumin (MSA) (Mus musculus) (UniProt P07724)
UniProt P07724, sequence (P07724 25-608): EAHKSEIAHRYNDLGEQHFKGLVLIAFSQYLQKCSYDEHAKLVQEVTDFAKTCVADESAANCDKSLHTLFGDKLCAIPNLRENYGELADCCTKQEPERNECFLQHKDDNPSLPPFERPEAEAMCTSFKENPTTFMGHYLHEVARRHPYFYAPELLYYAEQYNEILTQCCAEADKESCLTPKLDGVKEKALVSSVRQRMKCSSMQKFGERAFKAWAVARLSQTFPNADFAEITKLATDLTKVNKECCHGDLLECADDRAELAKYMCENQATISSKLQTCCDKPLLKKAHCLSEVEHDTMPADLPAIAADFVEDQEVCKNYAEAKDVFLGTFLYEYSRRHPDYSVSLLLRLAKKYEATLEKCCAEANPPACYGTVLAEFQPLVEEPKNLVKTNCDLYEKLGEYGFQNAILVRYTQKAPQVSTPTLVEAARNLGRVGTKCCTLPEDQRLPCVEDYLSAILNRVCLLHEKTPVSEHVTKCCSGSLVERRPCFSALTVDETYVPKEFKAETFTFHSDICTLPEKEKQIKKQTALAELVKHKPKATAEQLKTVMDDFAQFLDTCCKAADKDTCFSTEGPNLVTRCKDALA

Kd: 0.546 µM
Substance: FcRn (from UniProt Q61559)
